Key:
[1] = molecular target: Human CD4 on CD4+CD25+ regulatory T cells of healthy donors (human, UniProt P01730 26-458); assay: cell-based or functional assay
[2] = molecular target: T1, Human CD4 on CD4+CD25+ regulatory T cells (human, UniProt P01730 26-458); assay: in vitro assay with CD4+CD25+ regulatory T cells (allogeneic mixed lymphocyte reaction); no separate binding assay described
T1 construct: CD4 on Tregs or T cells of healthy human donors
Experimental: CD4+ CD25+ regulatory T cells were freshly isolated from a first donor (donor A). PBMCs were obtained from EDTA-blood by density gradient centrifugation. […] Tregs were pre-incubated with or without plate-bound antibody for 2 days. The number and phenotype of Tregs was determined by six colour flow cytometry as previously described (Haas et al., 2007). Pre-incubated Tregs were transferred to responder T cells (second donor B) in the presence of T-cell depleted and irradiated PBMCs (first donor A). After stimulation, [³H] thymidine was added and proliferation of responder T cells was measured after five days.

B1: BT61 Lot 52690 (antibody, human IgG1, kappa, V domains shown)
VH: EEQLVESGGGLVKPGGSLRLSCAASGFSFSDCRMYWLRQAPGKGLEWIGVISVKSENYGANYAESVRGRFTISRDDSKNTVYLQMNSLKTEDTAVYYCSASYYRYDVGAWFAYWGQGTLVTVSS
VL: DIVMTQSPDSLAVSLGERATINCRASKSVSTSGYSYIYWYQQKPGQPPKLLIYLASILESGVPDRFSGSGSGTDFTLTISSLQAEDVAVYYCQHSRELPWTFGQGTKVEIKR
- % Inh1 [1]: 26.7%
- % Inh2 [1]: 24.1%
- % Inh3 [1]: 27.8%
- Avg. % inhibition [1]: 26.2%

B2: LC master HC R33K (antibody, V domains shown)
VH: EEQLVESGGGLVKPGGSLRLSCAASGFSFSDCKMYWLRQAPGKGLEWIGVISVKSENYGANYAESVRGRFTISRDDSKNTVYLQMNSLKTEDTAVYYCSASYYRYDVGAWFAYWGQGTLVTVSS
VL: DIVMTQSPDSLAVSLGERATINCRASKSVSTSGYSYIYWYQQKPGQPPKLLIYLASILESGVPDRFSGSGSGTDFTLTISSLQAEDVAVYYCQHSRELPWTFGQGTKVEIKR
- % Inh1 [1]: 19.8%
- % Inh2 [1]: 18.8%
- % Inh3 [1]: 15%
- Avg. % inhibition [1]: 17.9%

B3: LC master HC Y105W (antibody, V domains shown)
VH: EEQLVESGGGLVKPGGSLRLSCAASGFSFSDCRMYWLRQAPGKGLEWIGVISVKSENYGANYAESVRGRFTISRDDSKNTVYLQMNSLKTEDTAVYYCSASYYRWDVGAWFAYWGQGTLVTVSS
VL: DIVMTQSPDSLAVSLGERATINCRASKSVSTSGYSYIYWYQQKPGQPPKLLIYLASILESGVPDRFSGSGSGTDFTLTISSLQAEDVAVYYCQHSRELPWTFGQGTKVEIKR
- % Inh1 [1]: 5.3%
- % Inh2 [1]: 2%
- % Inh3 [1]: 7%
- Avg. % inhibition [1]: 4.8%

B4: LC A55G HC R33K (antibody, V domains shown)
VH: EEQLVESGGGLVKPGGSLRLSCAASGFSFSDCKMYWLRQAPGKGLEWIGVISVKSENYGANYAESVRGRFTISRDDSKNTVYLQMNSLKTEDTAVYYCSASYYRYDVGAWFAYWGQGTLVTVSS
VL: DIVMTQSPDSLAVSLGERATINCRASKSVSTSGYSYIYWYQQKPGQPPKLLIYLGSILESGVPDRFSGSGSGTDFTLTISSLQAEDVAVYYCQHSRELPWTFGQGTKVEIKR
- % Inh1 [1]: 12.1%
- % Inh2 [1]: 6.4%
- % Inh3 [1]: 19.3%
- Avg. % inhibition [1]: 12.6%

B5: HC master LC L98I (antibody, V domains shown)
VH: EEQLVESGGGLVKPGGSLRLSCAASGFSFSDCRMYWLRQAPGKGLEWIGVISVKSENYGANYAESVRGRFTISRDDSKNTVYLQMNSLKTEDTAVYYCSASYYRYDVGAWFAYWGQGTLVTVSS
VL: DIVMTQSPDSLAVSLGERATINCRASKSVSTSGYSYIYWYQQKPGQPPKLLIYLASILESGVPDRFSGSGSGTDFTLTISSLQAEDVAVYYCQHSREIPWTFGQGTKVEIKR
- % Inh1 [1]: 12.2%
- % Inh2 [1]: 8.4%
- % Inh3 [1]: 18.2%
- Avg. % inhibition [1]: 12.9%

B6: LC master HC master (antibody, human IgG1, kappa, V domains shown)
VH: EEQLVESGGGLVKPGGSLRLSCAASGFSFSDCRMYWLRQAPGKGLEWIGVISVKSENYGANYAESVRGRFTISRDDSKNTVYLQMNSLKTEDTAVYYCSASYYRYDVGAWFAYWGQGTLVTVSS
VL: DIVMTQSPDSLAVSLGERATINCRASKSVSTSGYSYIYWYQQKPGQPPKLLIYLASILESGVPDRFSGSGSGTDFTLTISSLQAEDVAVYYCQHSRELPWTFGQGTKVEIKR
- % Inh2 [1]: 25.4%
- % Inh3 [1]: 25.9%
- Avg. % inhibition [1]: 26.3%

B7: LC master HC S101T (antibody, V domains shown)
VH: EEQLVESGGGLVKPGGSLRLSCAASGFSFSDCRMYWLRQAPGKGLEWIGVISVKSENYGANYAESVRGRFTISRDDSKNTVYLQMNSLKTEDTAVYYCSATYYRYDVGAWFAYWGQGTLVTVSS
VL: DIVMTQSPDSLAVSLGERATINCRASKSVSTSGYSYIYWYQQKPGQPPKLLIYLASILESGVPDRFSGSGSGTDFTLTISSLQAEDVAVYYCQHSRELPWTFGQGTKVEIKR
- % Inh1 [1]: 3.1%
- % Inh2 [1]: -3.6%
- % Inh3 [1]: 0%
- Avg. % inhibition [1]: -0.2%

B8: LC master HC R33K-A63G (antibody, V domains shown)
VH: EEQLVESGGGLVKPGGSLRLSCAASGFSFSDCKMYWLRQAPGKGLEWIGVISVKSENYGANYGESVRGRFTISRDDSKNTVYLQMNSLKTEDTAVYYCSASYYRYDVGAWFAYWGQGTLVTVSS
VL: DIVMTQSPDSLAVSLGERATINCRASKSVSTSGYSYIYWYQQKPGQPPKLLIYLASILESGVPDRFSGSGSGTDFTLTISSLQAEDVAVYYCQHSRELPWTFGQGTKVEIKR
- % Inh1 [1]: 15.7%
- % Inh2 [1]: 21.5%
- % Inh3 [1]: 21.9%
- Avg. % inhibition [1]: 19.7%

B9: LC G33A HC R33K (antibody, V domains shown)
VH: EEQLVESGGGLVKPGGSLRLSCAASGFSFSDCKMYWLRQAPGKGLEWIGVISVKSENYGANYAESVRGRFTISRDDSKNTVYLQMNSLKTEDTAVYYCSASYYRYDVGAWFAYWGQGTLVTVSS
VL: DIVMTQSPDSLAVSLGERATINCRASKSVSTSAYSYIYWYQQKPGQPPKLLIYLASILESGVPDRFSGSGSGTDFTLTISSLQAEDVAVYYCQHSRELPWTFGQGTKVEIKR
- % Inh1 [1]: 6.5%
- % Inh2 [1]: 7.9%
- % Inh3 [1]: 9%
- Avg. % inhibition [1]: 7.8%

B10: BT061 variant LC master HC Y105W (antibody, V domains shown)
VH: EEQLVESGGGLVKPGGSLRLSCAASGFSFSDCRMYWLRQAPGKGLEWIGVISVKSENYGANYAESVRGRFTISRDDSKNTVYLQMNSLKTEDTAVYYCSASYYRWDVGAWFAYWGQGTLVTVSS
VL: DIVMTQSPDSLAVSLGERATINCRASKSVSTSGYSYIYWYQQKPGQPPKLLIYLASILESGVPDRFSGSGSGTDFTLTISSLQAEDVAVYYCQHSRELPWTFGQGTKVEIKR
notes: also called knockout mutant
- binding result [2]: no binding

B11: LC master HC A63G (antibody, V domains shown)
VH: EEQLVESGGGLVKPGGSLRLSCAASGFSFSDCRMYWLRQAPGKGLEWIGVISVKSENYGANYGESVRGRFTISRDDSKNTVYLQMNSLKTEDTAVYYCSASYYRYDVGAWFAYWGQGTLVTVSS
VL: DIVMTQSPDSLAVSLGERATINCRASKSVSTSGYSYIYWYQQKPGQPPKLLIYLASILESGVPDRFSGSGSGTDFTLTISSLQAEDVAVYYCQHSRELPWTFGQGTKVEIKR
- % Inh1 [1]: 33.1%
- % Inh2 [1]: 25.5%
- % Inh3 [1]: 19.5%
- Avg. % inhibition [1]: 26%

B12: LC L98I HC R33K (antibody, V domains shown)
VH: EEQLVESGGGLVKPGGSLRLSCAASGFSFSDCKMYWLRQAPGKGLEWIGVISVKSENYGANYAESVRGRFTISRDDSKNTVYLQMNSLKTEDTAVYYCSASYYRYDVGAWFAYWGQGTLVTVSS
VL: DIVMTQSPDSLAVSLGERATINCRASKSVSTSGYSYIYWYQQKPGQPPKLLIYLASILESGVPDRFSGSGSGTDFTLTISSLQAEDVAVYYCQHSREIPWTFGQGTKVEIKR
- % Inh1 [1]: 9.2%
- % Inh2 [1]: 24.3%
- % Inh3 [1]: 24.6%
- Avg. % inhibition [1]: 19.4%

— patent US20130004513A1 (published 2013)
